How the values were obtained:
[1] = target: A. fulgidus HypB, tag-free (Archaeoglobus fulgidus); experiment: SEC-MALS; AfHypB (0.5 mM) preloaded with 5 mM GMPPNP and 1 mM NiCl2, excess removed; Superdex-75 HR10/30, 50 mM Tris pH 7.5, 0.2 M NaCl, 5 mM MgCl2, 1 mM TCEP
[2] = target: A. fulgidus HypA, tag-free (Archaeoglobus fulgidus) (UniProt O28904); experiment: SEC-MALS; equimolar AfHypA and AfHypB preloaded with GDP (monomeric form); Superdex-75 HR10/30, 50 mM Tris pH 7.5, 0.2 M NaCl, 1 mM TCEP, room temperature; peaks checked by SDS-PAGE
Chain of UniProt O28904 (O28904 whole entry): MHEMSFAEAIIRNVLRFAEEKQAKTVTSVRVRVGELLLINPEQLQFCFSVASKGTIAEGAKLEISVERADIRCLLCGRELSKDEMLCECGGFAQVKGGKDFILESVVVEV

stoichiometry N [1]: 2
stoichiometry N [2]: 1
Substance: A. fulgidus HypB, tag-free (natural protein)

Reference: article PMC3287977
